This note sets out measurements from patent publication US20070025992A1 (MOCHIDA PHARMACEUTICAL, published 2007).

Assay [1] concerns the target T1, GPVI-Fc (fusion protein of the extracellular domain of human GPVI and the Fc fragment of human IgG1) (human, UniProt Q9HCN6 21-267).
T1 construct: extracellular domain; also called human soluble GPVI-Fc; GPVI-hFc; not shown: human IgG1 Fc domain from plasmid pM1304 (printed as '506 amino acids'), joined in frame through a BamHI site
T1 sequence (looked up): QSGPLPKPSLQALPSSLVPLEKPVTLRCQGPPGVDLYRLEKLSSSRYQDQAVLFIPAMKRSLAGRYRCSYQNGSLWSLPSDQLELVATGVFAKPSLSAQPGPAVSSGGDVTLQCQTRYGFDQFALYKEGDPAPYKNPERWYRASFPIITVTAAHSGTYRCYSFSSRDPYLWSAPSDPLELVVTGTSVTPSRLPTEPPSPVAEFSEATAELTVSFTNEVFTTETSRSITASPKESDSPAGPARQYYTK
The experiment in a line: SPR (BIACORE3000), GPVI-Fc immobilized on CM5 chip. Background: SPR reads the build-up and loss of mass on a sensor chip optically.

The target of assay [2] is T1, GPVI-Fc (fusion protein of the …). The experiment in a line: ELISA on immobilized GPVI-Fc (0.25 µg/well), 20 ng purified antibody, peroxidase-labeled anti-human kappa or lambda antibody, absorbance at 450 nm. How it is done: GPVI binding activity of the purified antibody that was obtained in EXAMPLE 2 was assayed by the ELISA method that was described in EXAMPLE 2. As substitute for the culture supernatant of hybridoma in EXAMPLE 2, 20 ng of the purified anti-GPVI monoclonal human antibody prepared in EXAMPLE 2 was added, and as a control, purified human IgM (Cappel) was used.
Thus it was confirmed that the prepared antibody specifically recognizes GPVI.
For orientation: In an ELISA, binding on a coated surface is turned into a signal by an enzyme label.

The term Kd denotes a measure of binding affinity in units of concentration.

B1: #2-4 antibody (anti-GPVI monoclonal human antibody produced by hybridoma clone #2-4) (antibody, V domains shown)
VH: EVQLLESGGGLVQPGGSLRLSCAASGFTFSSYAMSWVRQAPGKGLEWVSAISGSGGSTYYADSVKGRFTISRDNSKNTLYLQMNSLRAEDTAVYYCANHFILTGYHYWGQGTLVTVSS
VL: QSVLTQPPSVSAAPGQKVTISCSGSSSNIGNNYVSWYQQLPGTAPKLLIYDNNKRPSGIPDRFSGSKSGTSATLGITGLQTGDEADYYCGTWDSSLSAGVFGGGTKLTVL
B1: binding in assay [1] was put at a Kd of 41.3 nM.

B2: #2-37 (antibody, V domains shown)
VH: EVQLVESGGGLVKPGGSLRLSCAASGFTFSDYYMSWIRQAPGKGLEWVSYITSSSSYTNYADSVKGRFTISRDNAKNSLYLQMNSLRAEDTAVYYCARDRAVRGVIIIRPPDYWGQGTLVTVSS
VL: QSALTQPASVSGSPGQSITISCTGTSSDVGGYNYVSWYQQHPGKAPKLMIYDVSNRPSGVSNRFSGSKSGNTASLTISGLQAEDEADYYCSSYTSSSTLVFGGGTKLTVL
notes: Human monoclonal antibody from a hybridoma; also called clone #2-37; #2-37 antibody
For the molecule B2, the binding result in assay [2] is “binds”.
